The target in test [1] is T1, human SEZ6L2 ECD-His (human, UniProt Q6UXD5 28-843).
T1 construct: whole entry named
As to the kind of experiment: ELISA on plates coated with SEZ6L2 protein. A general note: In an ELISA, binding on a coated surface is turned into a signal by an enzyme label.
Protocol: To determine cross reactivity to family member proteins, SEZ6L and SEZ6L2, an ELISA-based assay was used. Plates were coated with SEZ6, SEZ6L, or SEZ6L2 proteins at 0.2 μg/mL in PBS overnight. After washing with PBS containing 0.05% (v/v) Tween 20 (PB ST), the wells were blocked with 2% (w/v) BSA in PBS (PB SA), 100 μL/well for 1 hour at room temperature. Antibody was then added at 1 μg/mL in 100 μL PBSA for 1 hour at room temperature. After washing with PBST, 100 μL/well HRP-labeled goat anti-mouse IgG diluted 1:2,000 in PBSA for 1 hour at room temperature. […] After developing, an equal volume of 2M H₂SO₄ was added to stop substrate development and analyzed by spectrophotometer at OD 450.

In test [2] the target is T2, extracellular domain of cynomolgus SEZ6 on yeast (cynomolgus, UniProt Q53EL9 23-925 (human entry)).
T2 construct: yeast display; the whole entry is named; also called cSEZ6; cynomolgus SEZ6 ECD
T2 chain: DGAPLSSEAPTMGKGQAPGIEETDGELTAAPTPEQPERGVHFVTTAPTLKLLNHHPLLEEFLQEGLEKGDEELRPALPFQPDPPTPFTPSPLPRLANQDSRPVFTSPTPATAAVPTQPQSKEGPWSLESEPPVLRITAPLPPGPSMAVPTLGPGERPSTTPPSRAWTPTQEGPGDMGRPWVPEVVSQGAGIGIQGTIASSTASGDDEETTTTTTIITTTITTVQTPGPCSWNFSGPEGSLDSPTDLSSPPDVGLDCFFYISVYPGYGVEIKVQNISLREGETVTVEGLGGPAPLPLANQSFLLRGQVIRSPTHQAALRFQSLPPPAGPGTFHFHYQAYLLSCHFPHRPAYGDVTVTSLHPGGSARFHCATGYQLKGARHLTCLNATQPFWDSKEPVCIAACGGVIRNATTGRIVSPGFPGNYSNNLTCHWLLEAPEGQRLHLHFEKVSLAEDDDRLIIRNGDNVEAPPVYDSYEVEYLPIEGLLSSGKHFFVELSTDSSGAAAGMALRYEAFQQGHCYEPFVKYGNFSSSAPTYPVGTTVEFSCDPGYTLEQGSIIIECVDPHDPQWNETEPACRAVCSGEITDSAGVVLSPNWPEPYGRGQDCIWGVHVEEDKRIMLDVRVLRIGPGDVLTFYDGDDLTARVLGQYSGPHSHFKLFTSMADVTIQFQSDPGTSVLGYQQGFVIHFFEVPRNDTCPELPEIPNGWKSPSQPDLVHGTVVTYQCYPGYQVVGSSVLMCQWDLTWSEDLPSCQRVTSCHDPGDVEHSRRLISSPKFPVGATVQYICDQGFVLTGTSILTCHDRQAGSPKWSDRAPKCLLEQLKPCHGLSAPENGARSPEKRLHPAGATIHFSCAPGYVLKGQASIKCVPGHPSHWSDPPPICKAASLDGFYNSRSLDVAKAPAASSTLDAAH
The test can be described thus: flow cytometry, yeast displaying cynomolgus SEZ6 ECD, 5 ug/mL antibody.
Protocol: Briefly 1×10⁵ cells per well of Neuro2a, RIN-5mF, or yeast displaying cynomolgus SEZ6 cells were incubated for 30 minutes with 50 μL PBS (2% FCS) buffer with 5 μg/mL antibody. […] After incubating for 15 minutes cells were washed twice with the PBS buffer and re-suspended in the same with DAPI for flow cytometry analysis of Neuro2a and Rin-m5F or buffer without DAPI for flow cytometric analysis of yeast cells with cSEZ6.

The target in test [3] is T3, rSEZ6-ECD-His (rat, UniProt Q7TSK2 20-922 (mouse entry)).
T3 construct: the whole entry is named; also called rat recombinant SEZ6-His; rat SEZ6 ECD
T3 chain: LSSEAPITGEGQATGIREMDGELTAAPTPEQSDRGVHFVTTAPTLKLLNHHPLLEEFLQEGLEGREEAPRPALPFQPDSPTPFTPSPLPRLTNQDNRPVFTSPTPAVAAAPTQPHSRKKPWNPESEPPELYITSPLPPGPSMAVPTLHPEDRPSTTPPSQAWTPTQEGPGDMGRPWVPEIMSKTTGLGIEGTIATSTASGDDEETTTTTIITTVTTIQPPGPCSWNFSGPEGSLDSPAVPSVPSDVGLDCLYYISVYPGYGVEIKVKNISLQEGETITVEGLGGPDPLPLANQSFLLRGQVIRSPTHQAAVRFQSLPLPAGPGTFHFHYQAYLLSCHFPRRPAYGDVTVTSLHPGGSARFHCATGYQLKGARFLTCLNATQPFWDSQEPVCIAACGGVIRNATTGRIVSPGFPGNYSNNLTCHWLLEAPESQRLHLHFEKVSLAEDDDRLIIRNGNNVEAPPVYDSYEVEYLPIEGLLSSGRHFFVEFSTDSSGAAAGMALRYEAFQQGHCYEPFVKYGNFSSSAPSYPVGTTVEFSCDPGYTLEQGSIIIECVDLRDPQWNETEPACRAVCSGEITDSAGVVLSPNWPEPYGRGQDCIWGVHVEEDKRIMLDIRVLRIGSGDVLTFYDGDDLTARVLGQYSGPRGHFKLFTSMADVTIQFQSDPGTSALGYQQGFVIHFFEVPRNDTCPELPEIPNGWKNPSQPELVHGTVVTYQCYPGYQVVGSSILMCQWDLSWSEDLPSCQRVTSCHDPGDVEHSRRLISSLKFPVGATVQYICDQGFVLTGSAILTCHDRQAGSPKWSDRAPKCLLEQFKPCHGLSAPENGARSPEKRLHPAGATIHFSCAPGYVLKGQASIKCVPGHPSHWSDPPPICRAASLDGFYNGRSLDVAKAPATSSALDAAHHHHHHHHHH
The test can be described thus: bio-layer interferometry (ForteBio RED) or surface plasmon resonance (Biacore 2000) on rat SEZ6-His; the table does not say which; column Rat XR (Kd, nM). On the technique in general: BLI is a label-free optical method that tracks binding on a fibre tip over time.
Description: (§1) Various methods were used to analyze the binding and immunochemical characteristics of selected SEZ6 modulators generated as set forth above.

The target in test [4] is T4, hSEZ6-ECD-His (human, UniProt Q53EL9 20-925).
T4 construct: the whole entry is named; also called recombinant SEZ6-His; human recombinant SEZ6-His
The test can be described thus: bio-layer interferometry (ForteBio RED) or surface plasmon resonance (Biacore 2000) on human SEZ6-His; the table does not say which; column Hu Affinity (Kd, nM).
Description: as §1

T1 sequence (Q6UXD5 other isoform, or with tags, fused parts or gaps): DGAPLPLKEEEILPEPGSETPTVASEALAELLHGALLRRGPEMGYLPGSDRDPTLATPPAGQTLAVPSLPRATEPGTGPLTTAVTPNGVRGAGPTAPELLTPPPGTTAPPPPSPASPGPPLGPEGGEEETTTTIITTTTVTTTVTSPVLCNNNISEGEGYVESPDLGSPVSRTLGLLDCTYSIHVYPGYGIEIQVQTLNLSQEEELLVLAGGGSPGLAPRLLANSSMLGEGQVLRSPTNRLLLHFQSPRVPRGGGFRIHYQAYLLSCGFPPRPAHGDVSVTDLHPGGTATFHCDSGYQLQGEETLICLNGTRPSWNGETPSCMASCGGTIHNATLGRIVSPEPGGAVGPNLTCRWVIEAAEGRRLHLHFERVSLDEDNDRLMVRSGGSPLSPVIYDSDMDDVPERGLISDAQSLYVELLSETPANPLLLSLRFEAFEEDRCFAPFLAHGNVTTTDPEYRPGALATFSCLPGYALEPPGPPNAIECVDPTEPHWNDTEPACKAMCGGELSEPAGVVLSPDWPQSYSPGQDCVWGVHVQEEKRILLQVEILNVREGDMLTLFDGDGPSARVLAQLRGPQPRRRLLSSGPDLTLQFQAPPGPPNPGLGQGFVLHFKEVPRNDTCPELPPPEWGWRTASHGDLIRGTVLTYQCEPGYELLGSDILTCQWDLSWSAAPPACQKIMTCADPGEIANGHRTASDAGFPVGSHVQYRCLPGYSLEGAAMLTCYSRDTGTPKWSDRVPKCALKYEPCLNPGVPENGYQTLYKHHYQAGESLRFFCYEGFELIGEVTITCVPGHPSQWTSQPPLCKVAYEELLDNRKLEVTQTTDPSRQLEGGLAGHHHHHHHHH

B1: SC17.34 (antibody, V domains shown)
VH: EVQLQQSGPELVKPGSSVKISCKASGYTFTDYNMDWVKQSHGKRLEWIGYIYPDNGGAGYNQKFKGKATLTVDKSSSTAYMELRSLTSEDSAVYYCSRSITTAWFAYWGQGTLVTVSA
VL: DIKMTQSPSSMYASLGERVTITCKASQDINSYLSWFQQKPGKSPKTLIYRANRLVDGVPSRFSGSGSGQDYSLTISSLEYEDMGIYYCLQYDEFPPTFGGGTKLEIK
notes: murine mAb
Usually Kd stands for a measure of binding affinity in units of concentration. Low values mean tighter binding, high ones weaker binding. For the molecule B1, the binding result in test [1] was “no binding (tested: 1 µg/mL)”; in test [2], “binds”. Besides, the Kd in test [3] was determined as 79.5 nM; in test [4], 15.1 nM.

B2: SC17.17 (antibody, V domains shown)
VH: EVQLQQSGPEVMKPGASVKMSCKASGYTFTDYNMHWVKQNQGKSLEWIGEINPNIGGTGYNQKFKGKATLTVHKSSSTAYMELRSLTSEDSAVYYCARTYSYYSYEFAYWGQGTLVTVSA
VL: QIVLTQSPAIMSASPGEKVTMTCSASSSVSYMHWYQQKSGTSPKRWIYDTSKLPSGVPARFSGSGSGTSYSLTISSMEAEDAATYYCQQWSSTPPTFGAGTKLELK
notes: murine mAb
In the case of B2, the binding result in test [1] is listed as “no binding (tested: 1 µg/mL)”; in test [2], “binds”. For the same molecule, the Kd in test [3] came to 5 nM; in test [4], 1.8 nM.

These data come from patent US20190022241A1 (AbbVie / Abbott, published 2019).
